Consider one substance from IntAct's records for PubMed 16864798.

In this experiment the target is plk1_human PLK1 (UniProt P53350).
Chain of plk1_human PLK1 (P53350 whole entry): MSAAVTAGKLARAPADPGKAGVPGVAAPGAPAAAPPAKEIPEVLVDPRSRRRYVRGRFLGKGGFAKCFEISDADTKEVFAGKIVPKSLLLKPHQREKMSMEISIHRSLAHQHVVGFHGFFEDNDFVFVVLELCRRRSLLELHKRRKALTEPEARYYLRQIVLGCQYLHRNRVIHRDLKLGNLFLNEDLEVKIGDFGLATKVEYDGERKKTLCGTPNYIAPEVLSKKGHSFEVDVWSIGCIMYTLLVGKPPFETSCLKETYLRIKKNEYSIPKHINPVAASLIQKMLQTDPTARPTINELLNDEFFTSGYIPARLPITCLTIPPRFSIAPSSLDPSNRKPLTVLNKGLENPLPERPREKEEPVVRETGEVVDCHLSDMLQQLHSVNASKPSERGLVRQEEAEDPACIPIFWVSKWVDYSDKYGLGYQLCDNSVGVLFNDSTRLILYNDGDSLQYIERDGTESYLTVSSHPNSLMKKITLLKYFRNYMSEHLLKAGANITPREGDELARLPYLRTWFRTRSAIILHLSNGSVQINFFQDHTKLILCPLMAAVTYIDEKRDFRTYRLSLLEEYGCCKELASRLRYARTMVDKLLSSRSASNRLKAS

Regarding “RecQ-like DNA helicase BLM (Homo sapiens), P54132 S144A;S304A;S1290A;S1296A”, the “effect of a mutation on the interaction” value is listed as “disrupting interaction strength”.
